In article PMC10986557, “Inhibition of SARS-CoV-2 replication by a ssDNA aptamer targeting the nucleocapsid protein”:

Molecular target: Nucleocapsid (N) protein (SARS-CoV-2 original strain, UniProt P0DTC9 1-419)
Test: flow cytometry (bead-immobilized protein); 1x SB
Settings: protein: recombinant; tags: His6 (pET28a); chain copies: 2

B1: N-Apt17 (ssDNA)
DNA: GCTGGATGTTCATGCTGGCAAAAGGTGTCACTCCATTCCTTAGGGGCACCGGAAGCATCTCTTTACTTTGACACATCCAGC
- binding result: binds
